{
  "source": "patent US20170088624A1",
  "target": "Full length human CD40 (huCD40) on cells (human) (UniProt P25942)",
  "sequence (P25942 21-277)": "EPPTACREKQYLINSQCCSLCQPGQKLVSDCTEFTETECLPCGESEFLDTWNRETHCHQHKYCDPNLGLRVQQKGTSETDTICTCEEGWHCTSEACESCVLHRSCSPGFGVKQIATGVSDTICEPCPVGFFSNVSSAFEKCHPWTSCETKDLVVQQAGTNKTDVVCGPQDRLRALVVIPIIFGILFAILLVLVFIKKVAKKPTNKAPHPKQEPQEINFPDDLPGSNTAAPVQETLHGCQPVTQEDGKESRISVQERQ",
  "assay": "cell-based or functional assay",
  "data": [
    {"substance": "CP-870,893 (antibody)", "values": [
      {"measurement": "B cells EC50, CD23 surface expression, no cross-linker", "value": 3.17, "unit": "ng/mL"},
      {"measurement": "B cells EC50, CD80 surface expression, no cross-linker", "value": 7.34, "unit": "ng/mL"},
      {"measurement": "B cells EC50, CD83 surface expression, no cross-linker", "value": 4.28, "unit": "ng/mL"},
      {"measurement": "B cells EC50, CD86 surface expression, no cross-linker", "value": 4.04, "unit": "ng/mL"},
      {"measurement": "B cells EC50, HLA-DR surface expression, no cross-linker", "value": 8.15, "unit": "ng/mL"},
      {"measurement": "DC EC50, CD80 surface expression, no cross-linker", "value": 44.7, "unit": "ng/mL"},
      {"measurement": "DC EC50, CD83 surface expression, no cross-linker", "value": 245, "unit": "ng/mL"},
      {"measurement": "DC EC50, CD86 surface expression, no cross-linker", "value": 133, "unit": "ng/mL"},
      {"measurement": "DC EC50, HLA-DR surface expression, no cross-linker", "value": 242, "unit": "ng/mL"}
    ]}
  ]
}
